# In paper PMC8339130:
# Where two headings read alike, the source gives them in different places.
# Columns and labels:
# [1] = molecular target: HIV-1 Gag matrix domain (MA) (HIV-1); assay: crystal structure; MA co-crystallised with IP6; three crystal forms: cryogenic MA_IP6_R32 (2.40 Å), cryogenic MA_IP6_C2 (2.72 Å, six chains in the asymmetric unit), ambient-temperature SFX MA_IP6_SFX_P1 (3.5 Å); PEG 3350 or PEG 4000/2-propanol, 100 mM MES pH 6.0-6.5
# [2] = molecular target: HIV-1 Gag matrix domain (MA) (HIV-1); assay: as above; remark: listed apart in the source
substance,measurement,setting,value
HIV-1 Gag matrix domain (MA) (domain or fragment),stoichiometry N,[1],6
same,stoichiometry N,[2],3
